{"source": "the RNAGym collection of RNA variant scans (doi:10.7554/elife.80360)", "parents": {"B1": {"name": "Hairpin Ribozyme (parent)", "chain": "GUCCUCUUUCACGUGCGCGUGAAAGAGAGAAGUGAACCAGAGAAACACACGUUGUGGUAUAUUACCUGGUA"}}}
{"variants_of": "B1", "experiment": "self-cleavage, relative activity (ratio to wild type); higher = more cleavage; co-transcriptional"}
{"variant": "U7A A22C", "self-cleavage": 0.649}
{"variant": "U7A A22G", "self-cleavage": 0.61}
{"variant": "C6G G69U", "self-cleavage": 0.188}
{"variant": "C6G G69C", "self-cleavage": 0.115}
{"variant": "U7A A24C", "self-cleavage": 1.02}
{"variant": "U7A G32A", "self-cleavage": 0.145}
{"variant": "U7A G32U", "self-cleavage": 0.149}
{"variant": "C6U G40C", "self-cleavage": 0.14}
{"variant": "C6G U52C", "self-cleavage": 0.595}
{"variant": "U7A U52C", "self-cleavage": 0.953}
{"variant": "C6U G29U", "self-cleavage": 0.12}
{"variant": "U7A A35U", "self-cleavage": 0.714}
{"variant": "C6U U60C", "self-cleavage": 0.794}
{"variant": "C6U G13U", "self-cleavage": 0.6}
{"variant": "U7A C50A", "self-cleavage": 0.175}
{"variant": "U7A C50G", "self-cleavage": 0.269}
{"variant": "U7A G17U", "self-cleavage": 0.89}
{"variant": "C6U A24C", "self-cleavage": 0.747}
{"variant": "U7A A59U", "self-cleavage": 0.182}
{"variant": "C6U C65G", "self-cleavage": 0.232}
{"variant": "C6U C38G", "self-cleavage": 0.189}
{"variant": "C6U C38U", "self-cleavage": 0.37}
{"variant": "C6U U7G", "self-cleavage": 0.449}
{"variant": "C6G G13U", "self-cleavage": 0.27}
{"variant": "C6G G51U", "self-cleavage": 0.44}
{"variant": "U7A G57U", "self-cleavage": 0.253}
{"variant": "U7A C16A", "self-cleavage": 0.911}
{"variant": "C6G G32A", "self-cleavage": 0.106}
{"variant": "C6G G32U", "self-cleavage": 0.116}
{"variant": "C6U G54C", "self-cleavage": 0.311}
{"variant": "U7A G68C", "self-cleavage": 0.146}
{"variant": "U7A G68A", "self-cleavage": 0.28}
{"variant": "C6G G40C", "self-cleavage": 0.0776}
{"variant": "C6G G40A", "self-cleavage": 0.207}
{"variant": "C6U C37U", "self-cleavage": 0.6}
{"variant": "C6G G56C", "self-cleavage": 0.175}
{"variant": "C6G G56A", "self-cleavage": 0.149}
{"variant": "C6G G21A", "self-cleavage": 0.179}
{"variant": "C6U C16A", "self-cleavage": 0.85}
{"variant": "C6U U33C", "self-cleavage": 0.135}
{"variant": "U7A A31U", "self-cleavage": 0.11}
{"variant": "U7A A31G", "self-cleavage": 0.77}
{"variant": "U7A A31C", "self-cleavage": 0.0614}
{"variant": "C6G U14G", "self-cleavage": 0.374}
{"variant": "C6G U14A", "self-cleavage": 0.634}
{"variant": "C6U A49G", "self-cleavage": 0.571}
{"variant": "C6G G29C", "self-cleavage": 0.146}
{"variant": "C6G G29A", "self-cleavage": 0.138}
{"variant": "C6U G15C", "self-cleavage": 0.722}
{"variant": "C6U G15A", "self-cleavage": 0.794}
{"variant": "U7A G27U", "self-cleavage": 0.251}
{"variant": "U7A G27C", "self-cleavage": 0.197}
{"variant": "C6U A36G", "self-cleavage": 0.834}
{"variant": "U7A C10G", "self-cleavage": 0.541}
{"variant": "C6U C12G", "self-cleavage": 0.661}
{"variant": "C6U C12A", "self-cleavage": 0.656}
{"variant": "U7A A41C", "self-cleavage": 1.3}
{"variant": "U7A C66A", "self-cleavage": 0.269}
{"variant": "U7A C66U", "self-cleavage": 0.461}
{"variant": "U7A A11C", "self-cleavage": 0.636}
{"variant": "U7A A43C", "self-cleavage": 0.186}
{"variant": "C6G U9C", "self-cleavage": 0.436}
{"variant": "C6G G42A", "self-cleavage": 0.0986}
{"variant": "C6G G42C", "self-cleavage": 0.157}
{"variant": "C6U U52A", "self-cleavage": 0.965}
{"variant": "C6U U52C", "self-cleavage": 0.773}
{"variant": "U7A G56U", "self-cleavage": 0.128}
{"variant": "U7A G56C", "self-cleavage": 0.176}
{"variant": "C6U A31G", "self-cleavage": 0.451}
{"variant": "C6U G51C", "self-cleavage": 0.823}
{"variant": "C6U", "self-cleavage": 0.826}
{"variant": "U7A G54A", "self-cleavage": 0.535}
{"variant": "C6U G69C", "self-cleavage": 0.178}
{"variant": "C6U G69U", "self-cleavage": 0.256}
{"variant": "U7A G21U", "self-cleavage": 0.683}
{"variant": "U7A G21C", "self-cleavage": 0.664}
{"variant": "C6U G42U", "self-cleavage": 0.323}
{"variant": "U7A C18A", "self-cleavage": 1.12}
{"variant": "C6G G19A", "self-cleavage": 0.45}
{"variant": "C6G G19C", "self-cleavage": 0.328}
{"variant": "C6U U55A", "self-cleavage": 0.217}
{"variant": "C6U U55C", "self-cleavage": 0.183}
{"variant": "C6U U55G", "self-cleavage": 0.375}
{"variant": "C6U G19C", "self-cleavage": 0.719}
{"variant": "C6U G19A", "self-cleavage": 0.793}
{"variant": "C6G G57C", "self-cleavage": 0.124}
{"variant": "C6U A39G", "self-cleavage": 0.304}
{"variant": "C6U A41U", "self-cleavage": 0.977}
{"variant": "C6U A61G", "self-cleavage": 0.155}
{"variant": "C6U A61U", "self-cleavage": 0.0757}
{"variant": "C6U U9A", "self-cleavage": 0.517}
{"variant": "C6U A45C", "self-cleavage": 0.0819}
{"variant": "U7A U33G", "self-cleavage": 0.0989}
{"variant": "U7A A30G", "self-cleavage": 0.305}
{"variant": "U7A C37U", "self-cleavage": 0.403}
{"variant": "U7A C37A", "self-cleavage": 0.261}
{"variant": "C6U C18A", "self-cleavage": 0.885}
{"variant": "C6U C10A", "self-cleavage": 0.55}
{"variant": "C6U C10U", "self-cleavage": 0.582}
{"variant": "U7A A71C", "self-cleavage": 1.34}
{"variant": "C6U A47C", "self-cleavage": 0.283}
{"variant": "C6U A47U", "self-cleavage": 0.0966}
{"variant": "C6U A47G", "self-cleavage": 0.107}
{"variant": "C6U C66U", "self-cleavage": 0.309}
{"variant": "U7A", "self-cleavage": 0.92}
{"variant": "U7A U14G", "self-cleavage": 0.881}
{"variant": "U7A U14A", "self-cleavage": 1.03}
{"variant": "C6U A28G", "self-cleavage": 0.734}
{"variant": "C6U A28C", "self-cleavage": 0.428}
{"variant": "C6U U20G", "self-cleavage": 0.637}
{"variant": "U7A G42C", "self-cleavage": 0.357}
{"variant": "U7A G42U", "self-cleavage": 0.173}
{"variant": "U7A G51C", "self-cleavage": 0.972}
{"variant": "C6U A30U", "self-cleavage": 0.152}
{"variant": "U7A U8C", "self-cleavage": 0.559}
{"variant": "U7A G34C", "self-cleavage": 1.36}
{"variant": "U7A G34U", "self-cleavage": 1.4}
{"variant": "C6U G57C", "self-cleavage": 0.135}
{"variant": "U7A G19A", "self-cleavage": 0.845}
{"variant": "C6U U62A", "self-cleavage": 0.266}
{"variant": "C6G U20A", "self-cleavage": 0.242}
{"variant": "C6G U60G", "self-cleavage": 0.31}
{"variant": "C6G U60A", "self-cleavage": 0.496}
{"variant": "U7A A23U", "self-cleavage": 0.791}
{"variant": "C6U G21A", "self-cleavage": 0.572}
{"variant": "C6U G32U", "self-cleavage": 0.0839}
{"variant": "C6U G32A", "self-cleavage": 0.114}
{"variant": "C6U G32C", "self-cleavage": 0.0823}
{"variant": "C6U A71G", "self-cleavage": 0.82}
{"variant": "C6U A71U", "self-cleavage": 0.708}
{"variant": "C6U G56C", "self-cleavage": 0.149}
{"variant": "C6G U67G", "self-cleavage": 0.146}
{"variant": "C6G U67C", "self-cleavage": 0.151}
{"variant": "U7A A47C", "self-cleavage": 0.34}
{"variant": "U7A A47G", "self-cleavage": 0.0992}
{"variant": "U7A A47U", "self-cleavage": 0.0924}
{"variant": "C6G G17A", "self-cleavage": 0.491}
{"variant": "C6G G17C", "self-cleavage": 0.365}
{"variant": "C6U A59U", "self-cleavage": 0.127}
{"variant": "C6U A59C", "self-cleavage": 0.251}
{"variant": "C6U A59G", "self-cleavage": 0.266}
{"variant": "C6G G34A", "self-cleavage": 1.02}
{"variant": "U7A C38A", "self-cleavage": 0.28}
{"variant": "U7A C12A", "self-cleavage": 0.549}
{"variant": "U7A C12U", "self-cleavage": 0.797}
{"variant": "U7A A44C", "self-cleavage": 0.177}
{"variant": "C6U A44U", "self-cleavage": 0.12}
{"variant": "C6U U53A", "self-cleavage": 0.912}
{"variant": "U7A U20G", "self-cleavage": 0.705}
{"variant": "C6G G15U", "self-cleavage": 0.706}
{"variant": "C6U A22C", "self-cleavage": 0.493}
{"variant": "C6U A22U", "self-cleavage": 0.789}
{"variant": "C6U C46A", "self-cleavage": 0.0705}
{"variant": "C6U C46G", "self-cleavage": 0.204}
{"variant": "U7A A28C", "self-cleavage": 0.471}
{"variant": "U7A A28G", "self-cleavage": 1.03}
{"variant": "U7A C65A", "self-cleavage": 0.876}
{"variant": "U7A C65U", "self-cleavage": 0.349}
{"variant": "C6G G25U", "self-cleavage": 0.475}
{"variant": "C6G U33A", "self-cleavage": 0.155}
{"variant": "U7A A64U", "self-cleavage": 0.248}
{"variant": "C6U U8A", "self-cleavage": 0.538}
{"variant": "C6U U8G", "self-cleavage": 0.431}
{"variant": "U7A A36U", "self-cleavage": 0.568}
{"variant": "C6G U7C", "self-cleavage": 0.299}
{"variant": "C6G U7G", "self-cleavage": 0.131}
{"variant": "U7A A39U", "self-cleavage": 0.546}
